B1: Regulatory protein NPR4 (Arabidopsis thaliana (Mouse-ear cress)), Q5ICL9 (parent)
chain: MAATAIEPSSSISFTSSHLSNPSPVVTTYHSAANLEELSSNLEQLLTNPDCDYTDAEIIIEEEANPVSVHRCVLAARSKFFLDLFKKDKDSSEKKPKYQMKDLLPYGNVGREAFLHFLSYIYTGRLKPFPIEVSTCVDSVCAHDSCKPAIDFAVELMYASFVFQIPDLVSSFQRKLRNYVEKSLVENVLPILLVAFHCDLTQLLDQCIERVARSDLDRFCIEKELPLEVLEKIKQLRVKSVNIPEVEDKSIERTGKVLKALDSDDVELVKLLLTESDITLDQANGLHYAVAYSDPKVVTQVLDLDMADVNFRNSRGYTVLHIAAMRREPTIIIPLIQKGANASDFTFDGRSAVNICRRLTRPKDYHTKTSRKEPSKYRLCIDILEREIRRNPLVSGDTPTCSHSMPEDLQMRLLYLEKRVGLAQLFFPAEANVAMDVANVEGTSECTGLLTPPPSNDTTENLGKVDLNETPYVQTKRMLTRMKALMKTVETGRRYFPSCYEVLDKYMDQYMDEEIPDMSYPEKGTVKERRQKRMRYNELKNDVKKAYSKDKVARSCLSSSSPASSLREALENPT
partner: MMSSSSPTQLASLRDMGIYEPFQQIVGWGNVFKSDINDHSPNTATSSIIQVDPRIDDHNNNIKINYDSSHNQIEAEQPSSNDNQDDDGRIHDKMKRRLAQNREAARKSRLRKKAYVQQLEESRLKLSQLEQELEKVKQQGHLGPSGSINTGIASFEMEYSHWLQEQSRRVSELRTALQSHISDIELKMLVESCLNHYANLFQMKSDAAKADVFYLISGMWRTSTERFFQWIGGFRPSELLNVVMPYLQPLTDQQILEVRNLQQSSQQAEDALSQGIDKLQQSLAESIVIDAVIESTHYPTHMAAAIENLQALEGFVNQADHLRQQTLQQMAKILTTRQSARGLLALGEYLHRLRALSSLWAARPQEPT
B2: Regulatory protein NPR4 (Arabidopsis thaliana (Mouse-ear cress)), Q5ICL9 (parent)
chain: B1 chain
partner: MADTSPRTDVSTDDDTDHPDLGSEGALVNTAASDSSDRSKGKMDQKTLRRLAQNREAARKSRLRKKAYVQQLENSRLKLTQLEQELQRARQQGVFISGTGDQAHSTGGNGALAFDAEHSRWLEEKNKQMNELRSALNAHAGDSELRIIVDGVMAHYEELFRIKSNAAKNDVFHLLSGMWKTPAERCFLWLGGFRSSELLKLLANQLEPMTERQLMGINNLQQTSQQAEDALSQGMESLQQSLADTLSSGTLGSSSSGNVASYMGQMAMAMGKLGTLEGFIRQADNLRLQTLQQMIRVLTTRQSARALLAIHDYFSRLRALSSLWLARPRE

Variants of: B1
Settings: with tga7_arath TGA7, Q93ZE2

effect of a mutation on the interaction | Variant
disrupting interaction | H321Y

Variants of: B2
Settings: with tga2_arath TGA2, P43273

effect of a mutation on the interaction | Variant
disrupting interaction | H321Y
